# In article PMC8605023 (Nature Communications, 2021):
# Experiments:
# Conditions in all cases: both partners purified
# Ezrin FERM domain = Ezrin FERM domain (human, UniProt P15311 2-296)
# Radixin FERM domain = target: T1, Radixin FERM domain (human, UniProt P35241 5-295)
# T1 construct: also called RDX
# G3BP2 NTF2 domain = target: T2, G3BP2 NTF2 domain (human, UniProt Q9UN86 11-133)
# T2 sequence (looked up): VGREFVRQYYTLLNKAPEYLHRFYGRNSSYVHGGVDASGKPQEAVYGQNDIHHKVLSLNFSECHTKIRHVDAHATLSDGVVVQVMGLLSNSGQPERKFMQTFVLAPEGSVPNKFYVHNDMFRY
# Chain of Ezrin FERM domain (P15311 2-296): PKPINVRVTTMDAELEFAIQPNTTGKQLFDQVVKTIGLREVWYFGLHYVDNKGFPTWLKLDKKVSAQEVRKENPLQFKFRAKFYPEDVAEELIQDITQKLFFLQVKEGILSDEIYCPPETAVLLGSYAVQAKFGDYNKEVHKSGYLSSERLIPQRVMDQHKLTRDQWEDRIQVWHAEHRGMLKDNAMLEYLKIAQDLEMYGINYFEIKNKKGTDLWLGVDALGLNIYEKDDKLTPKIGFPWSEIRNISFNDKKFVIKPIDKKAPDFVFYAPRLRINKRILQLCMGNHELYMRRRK
# T1 sequence (P35241 5-295): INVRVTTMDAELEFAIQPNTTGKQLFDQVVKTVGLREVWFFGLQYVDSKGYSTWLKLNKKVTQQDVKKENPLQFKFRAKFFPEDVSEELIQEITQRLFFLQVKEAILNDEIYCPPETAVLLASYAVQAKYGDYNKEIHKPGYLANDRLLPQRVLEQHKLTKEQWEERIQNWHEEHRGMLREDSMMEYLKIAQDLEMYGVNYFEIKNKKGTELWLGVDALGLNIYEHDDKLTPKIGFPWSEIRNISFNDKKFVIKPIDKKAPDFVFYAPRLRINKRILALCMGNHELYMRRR
Binder,IC50 (Ezrin FERM domain),Ki (Ezrin FERM domain),IC50 (Radixin FERM domain),IC50 (G3BP2 NTF2 domain),Ki (G3BP2 NTF2 domain)
VETSNSFDVLKSEDAQY [NSP3 peptide 2019-2034 (Sars-CoV2)],1530 µM,37.6 µM,1530 µM,–,–
QGKPLEFGATSAALQY [NSP3 peptide 956-971 (Sars-CoV2)],–,–,–,100 µM,35 µM
